What was measured:
OX40-Fc = target: T1, OX40-Fc (Mus musculus, UniProt P47741); parameters: method as in PMID 36450532, PMID 37371066; conditions: previous studies; ref [23], [24]; cited from earlier work
T1 construct: made in house
T1 sequence (P47741 20-211 limits assumed): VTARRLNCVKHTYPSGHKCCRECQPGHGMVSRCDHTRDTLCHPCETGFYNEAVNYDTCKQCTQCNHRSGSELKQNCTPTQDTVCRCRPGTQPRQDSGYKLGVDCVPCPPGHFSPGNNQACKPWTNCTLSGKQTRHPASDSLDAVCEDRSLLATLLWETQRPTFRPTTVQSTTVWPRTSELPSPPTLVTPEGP

[1] = test system: antigen-specific CD4+ T cells; assay: Activation-induced marker (AIM) assay on dLN cells from TNP-KLH/CFA-immunized mice; format: in vivo, C57BL/6 mice; conditions: 20 µg i.p. on days 1 and 3, KLH 18 hours
Protocol: To perform the activation-induced marker (AIM) assay, a valuable method to detect antigen-specific CD4^+ T cells ([29], [30]), draining lymph node (dLN) cells were initially incubated with IgG from rat serum (14131, Merck) to block nonspecific binding. The following antibodies were used for cell-surface staining: PE/Cyanine7 anti-mouse CD4 (GK1.5, 100421, BioLegend), Alexa Fluor® 488 anti-mouse CD25 (PC61, 102018, BioLegend), and APC anti-mouse CD134 (OX-40) (OX-86, 119413, BioLegend). For Foxp3 staining, cells were fixed and permeabilized with the eBioscience™ Foxp3/Transcription Factor Staining Buffer Set (00-5523-00, Thermo Fisher), then stained with PE Anti-Mo/Ra FOXP3, eBioscience™ (FJK-16s, 12-5773-08, Thermo Fisher). Data were acquired on a FACS Canto II or a Celesta (BD Biosciences, Franklin Lakes, NJ, U.S.A.) and analyzed with BD FACS Diva software version 9 or Flowing software version 2 (Turku Bioscience, Turku, Finland, http://flowingsoftware.btk.fi/).
Groups of C57BL/6 mice from both male and female mice aged between 5 and 15 weeks were immunized subcutaneously at the footpad with 100 µg of 2,4,6-trinitrophenyl-conjugated keyhole limpet hemocyanin (TNP-KLH) emulsified in complete Freund’s adjuvant (CFA) (F5881, Merck) on day 0. […] Cell viability on day 3 was assessed with a 3-(4,5-dimethylthiazol-2-yl)-2,5-diphenyl-tetrazolium (MTT) (M2128, Merck) assay.

[2] = test system: antigen-specific T cell responses of draining lymph node cells; assay: Antigen recall responses of dLN cells from TNP-KLH/CFA-immunized mice (cytokine ELISA, MTT proliferation); format: in vivo, C57BL/6 mice; conditions: for antigen-specific T cell responses (recall IFN-γ, IL-17, IL-4 production and proliferation of dLN cells): 20 µg i.p. on days 1 and 3, TNP-KLH/CFA day 0, dLN day 7, KLH recall 3 days
Description: The following reagents were used for the measurement of cytokines from T cells: anti-IL-2 (JES6-1A12, 503701, BioLegend, San Diego, CA, U.S.A.) capture antibody, biotin-anti-IL-2 (JES6-5H4, 503803, BioLegend) detection antibody, anti-IFN-γ (R4-6A2, 505702, BioLegend) capture antibody, biotin-anti-IFN-γ (XMG1.2, 505804, BioLegend) detection antibody, anti-IL-4 (11B11, 504101, BioLegend) capture antibody, biotin-anti-IL-4 (BVD6-24G2, 504201, BioLegend) detection antibody, anti-IL-17A (TC11-18H10.1, 506901, BioLegend) capture antibody, biotin-anti-IL-17A (TC11-8H4, 507001, BioLegend) detection antibody, HRP streptavidin (405210, BioLegend), and 3,3’,5,5’-tetramethylbenzidine (TMB, 421101, BioLegend). The absorbance was measured at 450 nm or 620 nm using a FilterMax F5 (Molecular Devices, San Jose, CA, U.S.A.).
Groups of C57BL/6 mice from both male and female mice aged between 5 and 15 weeks were immunized subcutaneously at the footpad with 100 µg of 2,4,6-trinitrophenyl-conjugated keyhole limpet hemocyanin (TNP-KLH) emulsified in complete Freund’s adjuvant (CFA) (F5881, Merck) on day 0. Recombinant proteins in PBS were injected intraperitoneally on days 1 and 3. On day 7, pooled dLN cells were plated in 200 µL volumes in 96-well plates in triplicate in the presence or absence of KLH. Cells were harvested at 18 hours for the AIM assay. Culture supernatants were harvested at 72 hours for cytokine ELISA. Cell viability on day 3 was assessed with a 3-(4,5-dimethylthiazol-2-yl)-2,5-diphenyl-tetrazolium (MTT) (M2128, Merck) assay.

Molecule	specific interaction with OX40 (OX40-Fc)	frequency of OX40+CD25+Foxp3+CD4+ cells (AIM assay) [1]	frequency of OX40+CD25+Foxp3-CD4+ cells (AIM assay) ([1]; compared to control (PBS) or OX86)	antigen-specific T cell responses (recall IFN-γ, IL-17, IL-4 production and proliferation of dLN cells) [2]	induction of IL-4-producing cells ([2]; TNP-KLH/CFA-immunized mice, Figures 7, 9)
Fc-scOX40L: Fusion protein: Fc, PA, single-chain OX40L trimer (three OX40L joined by GGGSGGG linkers), His6; dimer of trimers (protein, left off: Fc (human IgG1: hinge, CH2, CH3), N-terminal, kept | PA tag (…), internal (between Fc and the first OX40L), kept | His6, C-terminal, kept, Fusion protein: Fc, PA, single-chain OX40L trimer (three OX40L joined by GGGSGGG linkers), His6; dimer of trimers) SSSPAKDPPIQRLRGAVTRCEDGQLFISSYKNEYQTMEVQNNSVVIKCDGLYIIYLKGSFFQEVKIDLHFREDHNPISIPMLNDGRRIVFTVVASLAFKDKVYLTVNAPDTLCEHLQINDGELIVVQLTPGYCAPEGSYHSTVNQVPLGGGSGGGSSSPAKDPPIQRLRGAVTRCEDGQLFISSYKNEYQTMEVQNNSVVIKCDGLYIIYLKGSFFQEVKIDLHFREDHNPISIPMLNDGRRIVFTVVASLAFKDKVYLTVNAPDTLCEHLQINDGELIVVQLTPGYCAPEGSYHSTVNQVPLGGGSGGGSSSPAKDPPIQRLRGAVTRCEDGQLFISSYKNEYQTMEVQNNSVVIKCDGLYIIYLKGSFFQEVKIDLHFREDHNPISIPMLNDGRRIVFTVVASLAFKDKVYLTVNAPDTLCEHLQINDGELIVVQLTPGYCAPEGSYHSTVNQVPL	specifically interact with OX40	significantly enhanced frequency	significantly increased frequency	elicited stronger antigen-specific T cell responses than Fc-MBL-OX40L (B) and scOX40L-Fc (D)	promoted the induction of IL-4-producing cells
scOX40L-Fc: Fusion protein: OX40L, Linker, OX40L, Linker, OX40L, Fc, PA, and His6 (protein, left off: Fc (human IgG1: hinge, CH2, CH3), C-terminal, kept | PA tag (…), C-terminal, kept | His6, C-terminal, kept) SSSPAKDPPIQRLRGAVTRCEDGQLFISSYKNEYQTMEVQNNSVVIKCDGLYIIYLKGSFFQEVKIDLHFREDHNPISIPMLNDGRRIVFTVVASLAFKDKVYLTVNAPDTLCEHLQINDGELIVVQLTPGYCAPEGSYHSTVNQVPLGGGSGGGSSSPAKDPPIQRLRGAVTRCEDGQLFISSYKNEYQTMEVQNNSVVIKCDGLYIIYLKGSFFQEVKIDLHFREDHNPISIPMLNDGRRIVFTVVASLAFKDKVYLTVNAPDTLCEHLQINDGELIVVQLTPGYCAPEGSYHSTVNQVPLGGGSGGGSSSPAKDPPIQRLRGAVTRCEDGQLFISSYKNEYQTMEVQNNSVVIKCDGLYIIYLKGSFFQEVKIDLHFREDHNPISIPMLNDGRRIVFTVVASLAFKDKVYLTVNAPDTLCEHLQINDGELIVVQLTPGYCAPEGSYHSTVNQVPL	–	–	–	triggered significantly higher T cell responses compared to the None (PBS) control group	–

Source: publication PMC11757143, “Generation and characterization of OX40-ligand fusion protein that agonizes OX40 on T-Lymphocytes” (Frontiers in Immunology, 2025)
